Columns and labels:
Format in all cases: in vivo, human
[1] = tested on: patients with chronic gout refractory to conventional therapy; assay: Open-label extension study; settings: KXX 8 mg every 2 weeks
Protocol: Two cases of congestive heart failure exacerbation occurred during the trials in patients receiving treatment with KXX 8 mg every 2 weeks. No cases were reported in placebo-treated patients. Four subjects had exacerbations of pre-existing congestive heart failure while receiving KXX 8 mg every 2 weeks during the open-label extension study.
Studies were stratified for the presence of tophi. Seventy-one percent (71%) of patients had baseline tophi. All patients were prophylaxed with an oral antihistamine, intravenous corticosteroid and acetaminophen. Patients also received prophylaxis for gout flares with non-steroidal anti-inflammatory drugs (NSAIDs) or colchicine, or both, beginning at least one week before KXX treatment unless medically contraindicated or not tolerated. Patients who completed the randomized clinical trials were eligible to enroll in a 2-year open label extension study.

[2] = tested on: subjects weighing ≥120 kg; assay: Analysis of prior pegloticase randomized clinical trials by body weight (>=120 kg); settings: ≥120 kg group
[3] = tested on: patients with chronic gout refractory to conventional therapy; assay: Infusion reactions with the dosage regimen described herein (stopping at SUA >6 mg/dL); settings: dosage regimen as described herein, strict adherence to stopping at serum uric acid greater than 6 mg/dL
Protocol: Study Design—In order to evaluate a tolerizing regimen of pegloticase (i.e., the main study), an open label, multicenter, 24-week study is performed. Eligible subjects weighing <120 kg receive pegloticase 8 mg intravenously (IV) on a weekly basis (week 1 through week 3—“Tolerizing Period”), followed by 8 mg IV every 2 weeks through week 25 for a total of 14 doses. Subjects weighing ≥120 kg are sequentially assigned to 1 of 3 different loading doses (8, 12, and 16 mg) on Study Day 1, and then receive 8 mg on weeks 2 and 3, followed by 8 mg every 2 weeks through week 25 for a total of 14 doses.
Eligible subjects weighing <120 kg will receive pegloticase 8 mg IV every 2 weeks through week 25 for a total of 13 doses. Subjects will also receive AZA (1.25 mg/kg orally daily for 1 week then 2.5 mg/kg orally daily) beginning 2 weeks prior to the first dose of pegloticase through week 25. Subjects are monitored for efficacy and safety endpoints, including hematology and liver function tests, through week 25. Subjects also have blood drawn for trough pegloticase, anti-pegloticase antibody, and anti-PEG antibody levels prior to each dose after week 1, on weeks 3, 5, 7, 9, 11, 13, 15, 17, 19, 21, 23, and 25; and sampling for trough AZA metabolite levels prior to all doses of pegloticase. […]

[4] = tested on: patients with chronic gout refractory to conventional therapy; assay: Adverse reactions in pre-marketing controlled clinical trials of KXX
Protocol: During the second 3 months of treatment, a lower proportion of pegloticase-treated patients experienced flares than patients receiving placebo. The incidence of flares during this time period was lowest in the group receiving pegloticase 8 mg every 2 weeks than in the group who received pegloticase 8 mg every 4 weeks, as was the incidence of infusion-related reactions (26% with biweekly dosing vs. 40% with the every-4-week dosing regimen). Both infusion reactions (IRs) and gout flares were least common in patients with sustained urate-lowering responses to treatment and those who received bi-weekly treatment. In most pegloticase-treated patients with IRs, a loss of response to pegloticase (return to SUA>6 mg/dL) preceded the time of the first IR (20/21; 95%).
The most commonly reported serious adverse reactions from pre-marketing controlled clinical trials were anaphylaxis, which occurred at a frequency of 6.5% in patients treated with KXX 8 mg every 2 weeks, compared to none with placebo; infusion reactions, which occurred at a frequency of 26% in patients treated with KXX 8 mg every 2 weeks, compared to 5% treated with placebo; and gout flares, which were more common during the first 3 months of treatment with KXX compared with placebo. All patients in pre-marketing controlled clinical trials were pre-treated with an oral antihistamine, intravenous corticosteroid and/or acetaminophen to prevent anaphylaxis and infusion reaction.
The data described below reflect exposure to KXX in patients with chronic gout refractory to conventional therapy in two replicate randomized, placebo-controlled, double-blind 6-month clinical trials: 85 patients were treated with KXX 8 mg every 2 weeks; 84 patients were treated with KXX 8 mg every 4 weeks; and 43 patients were treated with placebo. These patients were between the ages of 23 and 89 years (average 55 years); 173 patients were male and 39 were female; and 143 patients were White/Caucasian, 27 were Black/African American, 24 were Hispanic/Latino and 18 were all other ethnicities. Common co-morbid conditions among the enrolled patients included hypertension (72%), dyslipidemia (49%), chronic kidney disease (28%), diabetes (24%), coronary artery disease (18%), arrhythmia (16%), and cardiac failure/left ventricular dysfunction (12%).
Diagnostic criteria of anaphylaxis were skin or mucosal tissue involvement, and, either airway compromise, and/or reduced blood pressure with or without associated symptoms, and a temporal relationship to KXX or placebo injection with no other identifiable cause. Using these clinical criteria, anaphylaxis was identified in 14 (5.1%) of 273 total patients studied in the clinical program of IV KXX. The frequency was 6.5% for the every 2-week dosing regimen (8 of 123 patients), and 4.8% for the 4-week dosing frequency (6 of 126) of KXX. There were no cases of anaphylaxis in patients receiving placebo.

[5] = KXX 8 mg every 2 weeks (N = 85)

pegloticase
subjects with exacerbations of pre-existing congestive heart failure [1]: Four
impact on serum urate [2]: less
initial serum peak of pegloticase (Cmax) [2]: lower
tendency to become non-responders [2]: greater tendency to become non-responders
infusion reactions that occurred [3]: only a single infusion reaction occurred
frequency of anaphylaxis ([4]; 4-week dosing frequency (6 of 126)): 4.8%
anaphylaxis in total patients studied in the clinical program of IV KXX ([4]; 14 of 273 total patients): 5.1%
patients with infusion reactions ([4]; KXX 8 mg every 2 weeks): 26%
Adverse reaction: Anaphylaxis [4, 5]: 4 (5%) N (%)
Adverse reaction: Chest Pain [4, 5]: 5 (6%) N (%)
Adverse reaction: Constipation [4, 5]: 5 (6%) N (%)
Adverse reaction: Contusion or Ecchymosis [4, 5]: 9 (11%) N (%)
Adverse reaction: Gout Flare [4, 5]: 65 (77%) N (%)
Adverse reaction: Infusion reaction [4, 5]: 22 (26%) N (%)
Adverse reaction: Nasopharyngitis [4, 5]: 6 (7%) N (%)
Adverse reaction: Nausea [4, 5]: 10 (12%) N (%)
Adverse reaction: Vomiting [4, 5]: 4 (5%) N (%)
patients with infusion reactions ([4]; KXX 8 mg every 4 weeks): 41%
cases of congestive heart failure exacerbation ([4]; during the trials, KXX 8 mg every 2 weeks): Two
frequency of anaphylaxis ([4]; every 2 weeks dosing regimen (8 of 123 patients)): 6.5%
percentage of patients with any gout flare ([4]; first 3 months, KXX 8 mg every 2 weeks): 74%
percentage of patients with any gout flare ([4]; first 3 months, KXX 8 mg every 4 weeks): 81%
infusion reaction manifestation: chest discomfort, frequency ([4]; human, in vivo): 9.5%
infusion reaction manifestation: chest pain, frequency ([4]; human, in vivo): 9.5%
infusion reaction manifestation: dyspnea, frequency ([4]; human, in vivo): 7.1%
infusion reaction manifestation: erythema, frequency ([4]; human, in vivo): 9.5%
infusion reaction manifestation: pruritus, frequency ([4]; human, in vivo): 9.5%
infusion reaction manifestation: urticaria, frequency ([4]; human, in vivo): 10.6%
infusion reactions occurring with the first infusion ([4]; human, in vivo): approximately 3%
infusion reactions that occurred during the time of infusion ([4]; human, in vivo): approximately 91%
reactions in patients with glucose-6-phosphate dehydrogenase (G6PD) deficiency ([4]; human, in vivo): Life threatening hemolytic reactions and methemoglobinemia have been reported
percentage of patients with any gout flare ([4]; subsequent 3 months, KXX 8 mg every 2 weeks): 41%
percentage of patients with any gout flare ([4]; subsequent 3 months, KXX 8 mg every 4 weeks): 57%
